Biological target: the molecule itself
Experiment: SEC-MALS

B1: Get3(D68N) (enzyme)
chain: not shown
B1 was tested, and the “stoichiometry N” value was 2.

Reference: article PMC9477564 (Nature structural & molecular biology, 2021)
